According to US20180291110A1 (Hoffmann-La Roche, published 2018):

B1: 2/99 VH1/VL1 (antibody, V domains shown)
VH: VQLVETGGGLIQPGGSLRLSCAASGFSLSSYAMSWVRQAPGKGLEWVGYIWSGGSTDYADSVKGRFTISRDNSKNTLYLQMNSLRAEDTAVYYCARRYGTSYPDYGDANGFDPWGQGTLVTVSS
VL: DIQMTQSPSSLSASVGDRVTITCRASQSISSYLNWYQQKPGKAPKLLIYRASSLQSGVPSRFSGSGSGTDFTLTISSLQPEDFATYYCQQSYSSSNVDNTFGGGTKVEIK
B2: 2/99 VH11/VL1 (antibody, V domains shown)
VH: QQLLESGGGLVQPGGSLRLSCAASGFSLSSYAMSWVRQAPGKGLEWVGYIWSGGSTDYADSVKGRFTISRDNSKNTLYLQMNSLRAEDTAVYYCARRYGTSYPDYGDANGFDPWGQGTLVTVSS
VL: DIQMTQSPSSLSASVGDRVTITCRASQSISSYLNWYQQKPGKAPKLLIYRASSLQSGVPSRFSGSGSGTDFTLTISSLQPEDFATYYCQQSYSSSNVDNTFGGGTKVEIK
B3: 2/99 VH12/VL1 (antibody, V domains shown)
VH: QVQLQESGPGLVKPSETLSLTCTVSGFSLSSYAMSWIRQPPGKGLEWIGYIWSGGSTDYNPSLKSRVTISVDTSKNQFSLKLSSVTAADTAVYYCARRYGTSYPDYGDANGFDPWGQGTLVTVSS
VL: DIQMTQSPSSLSASVGDRVTITCRASQSISSYLNWYQQKPGKAPKLLIYRASSLQSGVPSRFSGSGSGTDFTLTISSLQPEDFATYYCQQSYSSSNVDNTFGGGTKVEIK
B4: 2/99 VH8/VL1 (antibody, V domains shown)
VH: QQLVETGGGLIQPGGSLRLSCAASGFSLSSYAMSWVRQAPGKGLEWIGYIWSGGSTDYASWAKGRFTISKTSTTLYLQMNSLRAEDTAVYYCARRYGTSYPDYGDANGFDPWGQGTLVTVSS
VL: DIQMTQSPSSLSASVGDRVTITCRASQSISSYLNWYQQKPGKAPKLLIYRASSLQSGVPSRFSGSGSGTDFTLTISSLQPEDFATYYCQQSYSSSNVDNTFGGGTKVEIK
B5: 2/99 VH16/VL1 (antibody, V domains shown)
VH: QQLQESGPGLVKPSETLSLTCTVSGFSLSSYAMSWVRQPPGKGLEWIGYIWSGGSTDYNPSLKSRVTISVDTSKNQVSLKLSSVTAADTAVYYCARRYGTSYPDYGDANGFDPWGPGTLVTVSS
VL: DIQMTQSPSSLSASVGDRVTITCRASQSISSYLNWYQQKPGKAPKLLIYRASSLQSGVPSRFSGSGSGTDFTLTISSLQPEDFATYYCQQSYSSSNVDNTFGGGTKVEIK
B6: 2/99 VH15/VL1 (antibody, V domains shown)
VH: QQLQESGPGLVKPSETLSLTCTVSGFSLSSYAMSWVRQPPGKGLEWIGYIWSGGSTDYNPSLKSRVTISVDTSKNQVSLKLSSVTAADTAVYYCARRYGTSYPDYGDANGFDPWGQGTLVTVSS
VL: DIQMTQSPSSLSASVGDRVTITCRASQSISSYLNWYQQKPGKAPKLLIYRASSLQSGVPSRFSGSGSGTDFTLTISSLQPEDFATYYCQQSYSSSNVDNTFGGGTKVEIK
B7: 2/99 VH13/VL1 (antibody, V domains shown)
VH: QVQLQESGPGLVKPSETLSLTCTVSGFSLSSYAMSWIRQPPGKGLEWIGYIWSGGSTDYNPSLKSRVTISVDTSKNQVSLKLSSVTAADTAVYYCARRYGTSYPDYGDANGFDPWGQGTLVTVSS
VL: DIQMTQSPSSLSASVGDRVTITCRASQSISSYLNWYQQKPGKAPKLLIYRASSLQSGVPSRFSGSGSGTDFTLTISSLQPEDFATYYCQQSYSSSNVDNTFGGGTKVEIK
B8: 2/99 VH18/VL1 (antibody, V domains shown)
VH: QVQLQESGPGLVKPSQTLSLTCTVSGFSLSSYAMSWIRQHPGKGLEWIGYIWSGGSTDYAPSLKSRVTISVDTSKNQFSLKLSSVTAADTAVYYCARRYGTSYPDYGDANGFDPWGQGTLVTVSS
VL: DIQMTQSPSSLSASVGDRVTITCRASQSISSYLNWYQQKPGKAPKLLIYRASSLQSGVPSRFSGSGSGTDFTLTISSLQPEDFATYYCQQSYSSSNVDNTFGGGTKVEIK
B9: 2/99 VH17/VL1 (antibody, V domains shown)
VH: QQLQESGPGLVKPSETLSLTCTVSGFSLSSYAMSWVRQPPGKGLEWIGYIWSGGSTDYNPSLKSRVTISKDTSKNQVSLKLSSVTAADTAVYYCARRYGTSYPDYGDANGFDPWGPGTLVTVSS
VL: DIQMTQSPSSLSASVGDRVTITCRASQSISSYLNWYQQKPGKAPKLLIYRASSLQSGVPSRFSGSGSGTDFTLTISSLQPEDFATYYCQQSYSSSNVDNTFGGGTKVEIK
B10: 2/99 VH5/VL1 (antibody, V domains shown)
VH: QSMEETGGGLIQPGGSLRLSCAASGFSLSSYAMSWVRQAPGKGLEWVGYIWSGGSTDYADSVKGRFTISRDNSKNTLYLQMNSLRAEDTAVYYCARRYGTSYPDYGDANGFDPWGPGTLVTVSS
VL: DIQMTQSPSSLSASVGDRVTITCRASQSISSYLNWYQQKPGKAPKLLIYRASSLQSGVPSRFSGSGSGTDFTLTISSLQPEDFATYYCQQSYSSSNVDNTFGGGTKVEIK
B11: 2/99 VH6/VL1 (antibody, V domains shown)
VH: QQLVETGGGLIQPGGSLRLSCAASGFSLSSYAMSWVRQAPGKGLEWIGYIWSGGSTDYADSVKGRFTISRDNSKNTLYLQMNSLRAEDTAVYYCARRYGTSYPDYGDANGFDPWGQGTLVTVSS
VL: DIQMTQSPSSLSASVGDRVTITCRASQSISSYLNWYQQKPGKAPKLLIYRASSLQSGVPSRFSGSGSGTDFTLTISSLQPEDFATYYCQQSYSSSNVDNTFGGGTKVEIK
B12: 2/99 VH9/VL1 (antibody, V domains shown)
VH: QQLLESGGGLVQPGGSLRLSCAASGFTFSSYAMSWVRQAPGKGLEWVGYIWSGGSTDYADSVKGRFTISRDNSKNTLYLQMNSLRAEDTAVYYCAKRYGTSYPDYGDANGFDPWGQGTLVTVSS
VL: DIQMTQSPSSLSASVGDRVTITCRASQSISSYLNWYQQKPGKAPKLLIYRASSLQSGVPSRFSGSGSGTDFTLTISSLQPEDFATYYCQQSYSSSNVDNTFGGGTKVEIK
B13: 2/99 VH2/VL1 (antibody, V domains shown)
VH: EVQLVETGGGLIQPGGSLRLSCAASGFSLSSYAMSWVRQAPGKGLEWVGYIWSGGSTDYADSVKGRFTISRDNSKNTLYLQMNSLRAEDTAVYYCARRYGTSYPDYGDANGFDPWGQGTLVTVSS
VL: DIQMTQSPSSLSASVGDRVTITCRASQSISSYLNWYQQKPGKAPKLLIYRASSLQSGVPSRFSGSGSGTDFTLTISSLQPEDFATYYCQQSYSSSNVDNTFGGGTKVEIK
B14: 2/99 VH7/VL1 (antibody, V domains shown)
VH: QQLVETGGGLIQPGGSLRLSCAASGFSLSSYAMSWVRQAPGKGLEWIGYIWSGGSTDYASWAKGRFTISRDNSKNTLYLQMNSLRAEDTAVYYCARRYGTSYPDYGDANGFDPWGQGTLVTVSS
VL: DIQMTQSPSSLSASVGDRVTITCRASQSISSYLNWYQQKPGKAPKLLIYRASSLQSGVPSRFSGSGSGTDFTLTISSLQPEDFATYYCQQSYSSSNVDNTFGGGTKVEIK
B15: 2/99 VH0(rb)/VL0(rb) (antibody, V domains shown)
VH: QSMEESGGRLVTPGTPLTLTCTVSGFSLSSYAMSWVRQAPGKGLEWIGYIWSGGSTDYASWAKGRFTISKTSTTVDLKITSPTTEDTATYFCARRYGTSYPDYGDANGFDPWGPGTLVTVSS
VL: AYDMTQTPASVEVAVGGTVTIKCQASQSISSYLSWYQQKPGQRPKLLIYRASTLASGVSSRFKGSGSGTQFTLTISGVECADAATYYCQQCYSSSNVDNTFGGGTEVVVKR
notes: 0 (rb) read as the rabbit parental domains of clone 2/99

molecular target: T1, human transferrin receptor (recombinant, for surface plasmon resonance) (human, UniProt P02786 89-760); assay: SPR 25C
T1 construct: also called huTfR; human transferrin receptor-biotinylated
T1 sequence (P02786 89-760 limits assumed): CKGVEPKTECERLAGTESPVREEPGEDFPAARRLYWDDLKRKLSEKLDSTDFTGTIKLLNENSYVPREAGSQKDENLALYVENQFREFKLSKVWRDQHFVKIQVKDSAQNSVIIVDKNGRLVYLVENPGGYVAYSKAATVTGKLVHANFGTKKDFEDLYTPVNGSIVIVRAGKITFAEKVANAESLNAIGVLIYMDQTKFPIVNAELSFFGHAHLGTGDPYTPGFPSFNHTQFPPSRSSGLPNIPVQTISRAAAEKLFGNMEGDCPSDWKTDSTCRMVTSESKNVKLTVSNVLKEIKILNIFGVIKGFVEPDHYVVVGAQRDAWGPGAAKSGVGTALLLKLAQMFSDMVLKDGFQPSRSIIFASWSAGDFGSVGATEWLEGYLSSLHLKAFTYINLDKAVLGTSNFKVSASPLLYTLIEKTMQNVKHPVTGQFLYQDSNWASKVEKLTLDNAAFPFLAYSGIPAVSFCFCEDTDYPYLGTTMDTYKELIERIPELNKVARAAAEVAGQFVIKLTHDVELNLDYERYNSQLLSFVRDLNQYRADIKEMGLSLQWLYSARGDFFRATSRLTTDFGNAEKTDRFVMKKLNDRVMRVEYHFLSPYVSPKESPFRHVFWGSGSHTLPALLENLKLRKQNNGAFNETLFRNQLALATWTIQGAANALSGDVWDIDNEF

B1 and B2 are the same in koff: 0.001 s⁻¹ for the first, 0.001 s⁻¹ for the second.

Compared with B3, B4 is 3.2-fold higher in koff: 0.001 s⁻¹ for the first, 0.00319 s⁻¹ for the second.

B5 and B6 are within 1.5-fold of each other in koff: 0.00771 s⁻¹ for the first, 0.00772 s⁻¹ for the second.

B7 and B8 are the same in koff: 0.001 s⁻¹ for the first, 0.001 s⁻¹ for the second.

First: B9
Second: B10
The koff of the first is 4.3-fold higher: 0.00433 s⁻¹ for the first, 0.001 s⁻¹ for the second.

Compared with B11, B12 is 6.9-fold higher in koff: 0.001 s⁻¹ for the first, 0.00694 s⁻¹ for the second.

First: B13
Second: B14
The koff of the first is 7.5-fold lower: 0.001 s⁻¹ for the first, 0.00752 s⁻¹ for the second.

B15 was tested, and the koff was 0.000434 s⁻¹.
